# According to the nanobody polyreactivity screen of Harvey et al. (2022):
# Experiment: yeast display, Sf9 membrane polyspecificity reagent, FACS + sequencing; frameworks hold sequencing errors
# Method in brief: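 Polyreactivity labels are assigned by the sorting gate from which each nanobody was recovered. The gates were low and high (top ~1%), set on anti-HA fluorescence for expression and streptavidin fluorescence for reagent binding. Before sorting, galactose-induced (36–48 hours) yeast display cells were stained for 1 hour at 4 °C with 10% biotinylated, detergent-solubilized Sf9 membrane reagent.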
row,Sequence,polyreactivity (PSR sort gate)
1,QVQLVESWGGLVQEGGSLRLSCAASGSTFGPYAMGWYRQAPGKERELVAAITESGDSTYYADSVKGRFTISRDNAKNSVYLQMNSLKPEDTAVYYCAATRGSSEYYYWGQGTQVTVSS,low polyreactivity
2,QVQLVESGGGLVQAGGSLRLSCAASGYTRFYAMGWYRQAPGKERELVAAISSSGGTTYYADSVKGRFTISRDNAKNTVYLQMNSLKPEDTAVYYCAKYVSYSRTLYDYWGQGTQVTVSS,high polyreactivity
3,QDQLEESGGGLVQAGGSLRLSCAASGYTISPNDMGWYRQAPGKERELVAAITSSVGSTYYADSVKGRFSFSRDNAKNTVYLQMKSLKPEDTAVYYYWGQGTQVTVSS,low polyreactivity
4,QVQLVESGGGLVQAGGSLRLSCAASGFTFTGNAMGWYRPAPGKERELVAAISRSGGSTFYADSVKGRFTISRDNAKNTVYLQMNSLKPEDTAVYYCAARRRTLNYLYDYWGQGTQVTVSS,high polyreactivity
5,QVQLVESGGGLVQAGGSLRLSCAASGIIFPTYVMGWYRQAPGKERELVAVISWSGASTYYADSVKGRFTISRDNAKNSVYLQMNSLKPEDTAVYYCAADWWRVEMDYWGQGTQVTVSS,low polyreactivity
6,QVQLVESGGGLVQAGGSLRLSCAASGRIFHWYAMGWYSQAPGKERELVAAISTDGSTYYADSVKGRFTISRDNAKNTVYLQKNSLKPEDTAVYYCAAVPGYTHLWGGPFDYGGQGTQVTVSS,low polyreactivity
7,QVQLVESGVGLVQAGGSLSLSCAASGRIFTYNALGWYRQAPGKERELVAAISALGGITYYADSVKGRFTISRDNAKITVYLQMNSLKPEDTAVYYCNKRYSSWSGVHDYWGQGTQVTVSS,high polyreactivity
8,QVQLVESGGGLVQARGSLRLSCAASGSTFIRYAMGWYRQAPGKERELVAAITWRGGSTYYADSVKGRFTISRDNAKNTVYLQMNSLKPEDTAVYYCAARDRDTRNYYWGQGTQGTVSS,high polyreactivity
9,QVQLVESGGGLVQAGGSLRLSCAASGRIFRRYAMGWYRQAPGTETELVAAISSGASTYYADSVKGRFTISRDNAKNTVYLQMNSLKPEDTAVYYCAVDRPYYYGYRMDYWGQGTQVTVSS,low polyreactivity
10,QVQLVESGGGLVQAGGSLRLSCAASGSTFHRNAMGWYRQAPGKERELVAAITSGGSTNYADSEKGRFTISRDNAKNTVYLQMNRLKPEDTPVYYCAKDDRHYNRGWYDYWGQGTQVTVSS,low polyreactivity
11,QVQLVESGGGLVQAGGSLRLSCAASGRIFIYAMGWYRQAPGKERELVAAISWSGGSTYYADSVKGRFTISRDNAKNTVYLQMNSLKPEDTAVYYCAADYEGWGYDYRGDYWGQGSQVTVSS,low polyreactivity
12,QVHLVESGGVLVQAGGRHRISCAASGRTFIQNAMGWYRQAPGKERELVAAISWSGGSTYYADSVKGRFTISRDNAKNTVYLQMNSLKPADTAVSYCAAETYDYLFHTYEYWGQATQVTVSS,low polyreactivity
13,QVQLVESGGGLVQAGGSLRLSSAASGSTFWYYAMGWYRQAPGTERELVAGITQSGGSTYYADSVKGRFTISRDNAKNTVYLQMNSLKPEDTAVYYCAKDGRVSGDFDYWGQGTQVTVSS,low polyreactivity
14,QVQLVESGGVLVQAGGSLRLSCAASGLTFKWYAMGWYRQAPGKERELVAAITKSGGTTYADSVKGRFTISRDNAKNTVYLQMNSLKPEDTAVYYCAARYWRLWNTVRYEGDFSDGYWGQGTQVTVSS,high polyreactivity
15,QVQLVESGGGLVQAGGSLRLSCAASGSIFWKYAMGWYRQAPGKERELVAAISWSDGSTYYADSVKGRFTISRDNAKNTVYLQMNSLKPEVTAVYYCNTPPQWLGRYITITFDYWGQGTQVTVSS,low polyreactivity
16,QVQLVESGGGLVQAGGSLRLSCAASGGTFLYYAMGWYRQAPGKERELVAAISRGGSTHYADSVKGRFTISRDNAKNTVYLQMNSLKPEDTAVYYCAADRSHRKRINFYDYWGQGTQVTVSS,low polyreactivity
17,QVHLVESGGGLVQAGGILRLSCPASGQTFWAYAMGWYRQAPGKERELVAAISWRGGSTYYADSVKGRFTISRDNAKNTVYLQMNSLKPEDTAVYYCAAQYLYYGGRRYDFWGQGTQVTVSS,high polyreactivity
